This is an account of results in article PMC7966745, “Elucidation of transient protein-protein interactions within carrier protein-dependent biosynthesis” (Communications Biology, 2021).

First the molecules themselves.
B2: FabF, E. coli elongating ketosynthase (enzyme)
chain: SKRRVVVTGLGMLSPVGNTVESTWKALLAGQSGISLIDHFDTSAYATKFAGLVKDFNCEDIISRKEQRKMDAFIQYGIVAGVQAMQDSGLEITEENATRIGAAIGSGIGGLGLIEENHTSLMNGGPRKISPFFVPSTIVNMVAGHLTIMYGLRGPSISIATACTSGVHNIGHAARIIAYGDADVMVAGGAEKASTPLGVGGFGAARALSTRNDNPQAASRPWDKERDGFVLGDGAGMLVLEEYEHAKKRGAKIYAELVGFGMSSDAYHMTSPPENGAGAALAMANALRDAGIEASQIGYVNAHGTSTPAGDKAEAQAVKTIFGEAASRVLVSSTKSMTGHLLGAAGAVESIYSILALRDQAVPPTINLDNPDEGCDLDFVPHEARQVSGMEYTLCNSFGFGGTNGSLIFKKI
notes: ketosynthase FabF (3-oxoacyl-ACP synthase 2), E. coli; also called KS; source: E. coli BL21 (DE3), purified (Ni-IMAC, Superdex 75)
B3: octanoyl-AcpP (C8-AcpP), E. coli acyl carrier protein (natural protein)
chain: STIEERVKKIIGEQLGVKQEEVTNNASFVEDLGADSLDTVELVMALEEEFDTEIPDEEAEKITTVQAAIDYINGHQA
modifications: octanoyl pantethenamide probe loaded (stable C8 acyl analog); uniformly 15N labeled and perdeuterated
notes: acyl carrier protein AcpP, E. coli; PDB 2FAD is heptanoyl-AcpP, used for docking only; also called 15N-C8-AcpP; source: E. coli BL21 (DE3), M9 minimal media with 15N NH4Cl and D2O, purified; made apo with P. aeruginosa ACPH, then loaded with CoaA, CoaD, CoaE and Sfp

In one test the target is FabB (Escherichia coli) (UniProt P0A953). As to the kind of experiment: NMR titration (TITAN). The note with it: cited from earlier work.
FabB (Escherichia coli), sequence (P0A953 whole entry): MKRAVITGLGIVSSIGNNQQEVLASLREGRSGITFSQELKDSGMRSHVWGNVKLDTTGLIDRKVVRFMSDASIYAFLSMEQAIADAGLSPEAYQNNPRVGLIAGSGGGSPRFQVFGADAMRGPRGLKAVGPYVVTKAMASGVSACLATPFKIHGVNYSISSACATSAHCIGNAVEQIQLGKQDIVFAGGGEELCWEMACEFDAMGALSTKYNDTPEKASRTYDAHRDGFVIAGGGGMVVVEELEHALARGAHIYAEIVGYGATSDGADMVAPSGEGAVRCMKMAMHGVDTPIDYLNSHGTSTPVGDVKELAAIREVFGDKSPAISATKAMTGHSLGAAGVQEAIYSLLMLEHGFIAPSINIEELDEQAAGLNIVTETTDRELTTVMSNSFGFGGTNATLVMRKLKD
Test [1] has as its target T1, octanoyl-AcpP (15N-C8-AcpP), E. coli acyl carrier protein (E. coli, UniProt P0A6A8 2-78, octanoyl pantethenamide probe loaded as a 4'-phosphopantetheine analog (amide linked octanoyl) on S36; uniformly 15N labeled and perdeuterated).
T1 construct: Acyl carrier protein AcpP of E. coli; Grown on a His-tagged pET-22b vector; also called amide linked octanoyl AcpP; source: E. coli BL21 (DE3), M9 minimal media with 15N NH4Cl and D2O, purified; made apo with ACPH, then loaded with an octanoyl pantethenamide probe (CoaA, CoaD, CoaE, Sfp)
As to the kind of experiment: NMR titration; 1H-15N HSQC of perdeuterated 15N-C8-AcpP with increasing unlabeled partner protein, five points; TITAN 2D lineshape analysis, flexible stoichiometry model, error from 300 bootstrap steps; 37 °C, 10 mM potassium phosphate pH 7.4, 0.5 mM TCEP, 0.1% NaN3. The conditions noted are these: both partners purified.

Test [2] deals with B3. Kind of test: NMR titration; 1H-15N HSQC of 15N, perdeuterated C8-AcpP titrated with unlabeled partner, at least five points; 37 °C; 10 mM potassium phosphate pH 7.4, 0.5 mM TCEP, 0.1% NaN3; TITAN 2D lineshape analysis, flexible stoichiometry model. The conditions noted are these: both partners purified.
In test [3] the target is B2. The test is described as above. The conditions noted are these: both partners purified.
In test [4] the target is T2, TesA, E. coli thioesterase (E. coli, UniProt P0ADA1 27-208).
T2 construct: thioesterase TesA (thioesterase 1), E. coli; source: E. coli BL21 (DE3), purified (Ni-IMAC, Superdex 75)
T2 sequence: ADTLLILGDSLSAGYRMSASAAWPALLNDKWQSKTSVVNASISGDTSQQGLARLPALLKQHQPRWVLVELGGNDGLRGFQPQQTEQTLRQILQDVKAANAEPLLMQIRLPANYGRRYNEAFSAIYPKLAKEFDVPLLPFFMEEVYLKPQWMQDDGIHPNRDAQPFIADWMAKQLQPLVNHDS
Described as above. The conditions noted are these: both partners purified.

Test [5] concerns the target T3, FabG, E. coli ketoreductase (E. coli, UniProt P0AEK2 1-244).
T3 construct: ketoreductase FabG (3-oxoacyl-ACP reductase), E. coli; Titrated with 0.5 mM NAD+ present; also called KR; source: E. coli BL21 (DE3), purified (Ni-IMAC, Superdex 75)
T3 sequence: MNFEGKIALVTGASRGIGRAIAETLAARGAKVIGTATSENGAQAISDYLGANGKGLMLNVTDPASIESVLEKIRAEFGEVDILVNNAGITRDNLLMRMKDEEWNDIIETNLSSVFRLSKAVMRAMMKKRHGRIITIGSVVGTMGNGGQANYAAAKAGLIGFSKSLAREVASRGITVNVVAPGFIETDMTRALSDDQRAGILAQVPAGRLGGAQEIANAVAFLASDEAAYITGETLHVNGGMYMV
As to the kind of experiment: NMR titration; 1H-15N HSQC of 15N, perdeuterated C8-AcpP titrated with unlabeled partner, at least five points; 37 °C; 10 mM potassium phosphate pH 7.4, 0.5 mM TCEP, 0.5 mM NAD+, 0.1% NaN3; TITAN 2D lineshape analysis, flexible stoichiometry model. The conditions noted are these: both partners purified.

Test [6] has as its target T4, FabI, E. coli enoylreductase (E. coli, UniProt P0AEK4 1-262).
T4 construct: enoylreductase FabI (enoyl-ACP reductase [NADH]), E. coli; Titrated with 0.5 mM NAD+ present; also called ER; source: E. coli BL21 (DE3), purified (Ni-IMAC, Superdex 75)
T4 sequence: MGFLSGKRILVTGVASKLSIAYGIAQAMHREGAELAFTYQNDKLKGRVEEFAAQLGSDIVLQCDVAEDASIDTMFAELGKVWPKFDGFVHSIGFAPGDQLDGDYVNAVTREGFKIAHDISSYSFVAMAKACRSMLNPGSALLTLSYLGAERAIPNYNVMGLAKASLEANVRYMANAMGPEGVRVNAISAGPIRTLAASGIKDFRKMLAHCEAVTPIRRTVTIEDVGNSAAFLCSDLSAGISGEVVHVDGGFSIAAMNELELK
The test is described as above. The note with it: both partners purified.

With AcpP (from UniProt P0A6A8), in the test with FabB (Escherichia coli), the Kd was 37.6 µM.

B1: FabF, elongating ketosynthase of E. coli fatty acid biosynthesis (enzyme)
chain: SKRRVVVTGLGMLSPVGNTVESTWKALLAGQSGISLIDHFDTSAYATKFAGLVKDFNCEDIISRKEQRKMDAFIQYGIVAGVQAMQDSGLEITEENATRIGAAIGSGIGGLGLIEENHTSLMNGGPRKISPFFVPSTIVNMVAGHLTIMYGLRGPSISIATACTSGVHNIGHAARIIAYGDADVMVAGGAEKASTPLGVGGFGAARALSTRNDNPQAASRPWDKERDGFVLGDGAGMLVLEEYEHAKKRGAKIYAELVGFGMSSDAYHMTSPPENGAGAALAMANALRDAGIEASQIGYVNAHGTSTPAGDKAEAQAVKTIFGEAASRVLVSSTKSMTGHLLGAAGAVESIYSILALRDQAVPPTINLDNPDEGCDLDFVPHEARQVSGMEYTLCNSFGFGGTNGSLIFKKI
notes: FabF ketosynthase (3-oxoacyl-ACP synthase 2), E. coli; also called KS; source: E. coli BL21 (DE3), purified (Ni-IMAC, Superdex 75)
On to B1, for which the “stoichiometry N” value in test [1] was found to be 1.3.

Turning to B2, the “stoichiometry N” value in test [2] was around 1.

Turning to B3, the Kd is 8.3 µM in test [3], 12.5 µM in test [4], 52.3 µM in test [5] and 1.7 µM in test [6]. In addition, the koff in test [3] was determined as 3510 s⁻¹; in test [4] it was 9720 s⁻¹; in test [5], 3560 s⁻¹; in test [6], 8500 s⁻¹.
